Type in all cases: biochemical
The target of assay [1] is T1, full-length collagenase 1 (MMP-1) (Homo sapiens, UniProt P03956).
T1 construct: full-length collagenase 1 (MMP-1)
T1 sequence (P03956 100-469): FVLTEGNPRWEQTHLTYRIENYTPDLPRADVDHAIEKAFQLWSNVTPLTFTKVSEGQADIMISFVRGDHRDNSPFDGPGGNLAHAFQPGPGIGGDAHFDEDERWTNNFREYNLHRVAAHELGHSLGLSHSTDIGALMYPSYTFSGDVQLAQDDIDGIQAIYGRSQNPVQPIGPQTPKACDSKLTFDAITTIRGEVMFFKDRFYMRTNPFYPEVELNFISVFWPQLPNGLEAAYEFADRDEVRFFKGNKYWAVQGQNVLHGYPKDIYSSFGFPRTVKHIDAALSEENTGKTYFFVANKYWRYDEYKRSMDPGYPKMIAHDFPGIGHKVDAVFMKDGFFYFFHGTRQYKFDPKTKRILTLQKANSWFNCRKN
Kind of assay: Enzyme inhibition kinetic study, MMP-1. As for the experimental part: (§1) Enzyme inhibition kinetic studies—Inhibition kinetic studies for MMPs and TACE were carried out as described previously (19, 27) with modifications. Purified N-TIMP-3 and mutants were dialyzed against 20 mM Tris-HCl (pH 7.0), 50 mM NaCl containing 20% glycerol, centrifuged at 14,000 rpm for 10 min to remove any precipitate, and protein concentration was re-measured before conducting inhibition assays. Since NaCl inhibits the activity of the TACE ectodomain in vitro (28), we adjusted the final concentration of NaCl to 1 mM in all assays with TACE. Equal volumes (10% of total assay volume) of diluted solutions of N-TIMP-3 and mutants were added to TACE assays, resulting in a final pH of 8.8.
(§2) (Eq. 1) Tight binding inhibition:
(§3) where v is the experimentally determined reaction velocity, v0 is the uninhibited activity, E is enzyme concentration, I is inhibitor concentration, K is the apparent inhibition constant (Ki^(app)) and h is the Hill coefficient.
(§4) Inhibitory properties of mutants with purified metalloproteinases—The inhibitory activities of wild-type N-TIMP-3 and the two mutants were determined with MMPs representing four different sub-groups: full-length collagenase 1 (MMP-1), gelatinase A (MMP-2), and the catalytic domains of stromelysin 1 (MMP-3(ΔC)) and membrane-type 1 MMP (MMP-14). As previously reported for the corresponding mutants of N-TIMP-1 and TIMP-2 (17, 18), both mutations in N-TIMP-3 reduced the inhibitory activity towards the four MMPs by 2 to 3 orders of magnitude (Table I). FIG. 2A highlights the difference in inhibition of MMP-14(CD) by wild-type and mutated N-TIMP-3.
(§5) Ki(app) determinations for MMP-1, MMP-2 and MMP-3 were performed as set out in Example 1.

The next assay deals with T2, gelatinase A (MMP-2) (Homo sapiens, UniProt P08253).
T2 sequence (P08253 110-660): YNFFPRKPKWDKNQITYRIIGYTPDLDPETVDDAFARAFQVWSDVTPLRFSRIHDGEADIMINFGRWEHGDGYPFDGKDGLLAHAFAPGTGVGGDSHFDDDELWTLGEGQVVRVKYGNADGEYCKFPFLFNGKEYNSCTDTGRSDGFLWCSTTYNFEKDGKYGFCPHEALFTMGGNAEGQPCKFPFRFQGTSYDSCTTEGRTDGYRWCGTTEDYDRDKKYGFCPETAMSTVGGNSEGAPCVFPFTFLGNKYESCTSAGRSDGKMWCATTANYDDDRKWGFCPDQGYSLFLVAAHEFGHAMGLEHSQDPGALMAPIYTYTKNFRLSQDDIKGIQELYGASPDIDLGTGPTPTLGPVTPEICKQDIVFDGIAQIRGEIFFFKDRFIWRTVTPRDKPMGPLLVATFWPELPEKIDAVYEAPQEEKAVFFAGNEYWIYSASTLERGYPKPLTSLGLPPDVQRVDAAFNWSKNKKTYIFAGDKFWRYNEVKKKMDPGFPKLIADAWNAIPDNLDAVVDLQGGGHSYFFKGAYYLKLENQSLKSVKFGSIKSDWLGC
Kind of assay: Enzyme inhibition kinetic study, MMP-2. As to conditions: for Ki: read-out: Ki(app) MMP-2. As for the experimental part:
as §1, §2, §3, §4, §5

Assay [2] has as its target T3, catalytic domain of stromelysin 1 (MMP-3(ΔC)) (Homo sapiens, UniProt P08254).
T3 construct: the catalytic domains of stromelysin 1 (MMP-3(ΔC)) and membrane-type 1 MMP (MMP-14)
Kind of assay: Enzyme inhibition kinetic study, MMP-3. As for the experimental part: as §1, §2, §3, §4, §5

[3] abbreviates: Table 3, read-out: Ki(app) MMP-1.
The mark [4] stands for this setting: higher pH and low ionic strength (TACE conditions), read-out: Ki MMP-1 under the conditions used for TACE activity measurements.
The mark [5] stands for this setting: Table 3, read-out: Ki(app) MMP-3.

Like-named read-outs stand apart in the source and are kept apart here. Some results are limits rather than exact numbers.

T3 sequence (P08254 100-272 limits assumed, stated change not applied): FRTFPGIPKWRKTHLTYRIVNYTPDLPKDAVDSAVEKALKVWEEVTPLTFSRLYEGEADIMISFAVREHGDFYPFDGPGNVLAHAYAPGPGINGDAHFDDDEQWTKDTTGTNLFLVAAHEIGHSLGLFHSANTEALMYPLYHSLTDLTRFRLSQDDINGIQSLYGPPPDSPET

B1: (-2A)N-TIMP-3: N-TIMP-3 mutant with two alanine residues on the N-terminal side of Cysteine1 of the TIMP-3 sequence (protein)
chain: AACTCSPSHPQDAFCNSDIVIRAKVVGKKLVKEGPFGTLVYTIKQMKMYRGFTKMPHVQYIHTEASESLCGLKLEVNKYQYLLTGRVYDGKMYTGLCNFVERWDQLTLSQRKGLNYRYHLGCN
For the molecule B1, the “Inhibition of MMP-1” value in assay [1] (100 nM) was “no inhibition”. Besides, the “Inhibition of MMP-2” value in the assay with gelatinase A (MMP-2) (100 nM) was “no inhibition”. In addition, the “Inhibition of MMP-3” value in assay [2] (100 nM) is listed as “no inhibition”.

B2: N-TIMP-3: N-terminal inhibitory domain of TIMP-3 (residues 1 to 121), C-terminally His-tagged, wild-type (protein)
chain: CTCSPSHPQDAFCNSDIVIRAKVVGKKLVKEGPFGTLVYTIKQMKMYRGFTKMPHVQYIHTEASESLCGLKLEVNKYQYLLTGRVYDGKMYTGLCNFVERWDQLTLSQRKGLNYRYHLGCN
With B2, the Ki in assay [1] (setting [3]) came out at 8.2 ± 2 nM; in assay [1] (setting [4]), 1.6 nM; with gelatinase A (MMP-2) (Table 3) it was 5.1 ± 1 nM; in assay [2] (setting [5]) it was 1.8 ± 0.4 nM.

B3: -1A: N-TIMP-3 mutant with the addition of an N-terminal alanine extension (-1A) (protein)
chain: ACTCSPSHPQDAFCNSDIVIRAKVVGKKLVKEGPFGTLVYTIKQMKMYRGFTKMPHVQYIHTEASESLCGLKLEVNKYQYLLTGRVYDGKMYTGLCNFVERWDQLTLSQRKGLNYRYHLGCN
On to B3, for which the Ki in assay [1] (setting [3]) is above 500 nM; in assay [1] (Table I, enzyme 5 nM, pH 7.5, read-out: Ki(app) MMP-1) it was around 1300 nM; in assay [1] (setting [4]), 412 nM; in the assay with gelatinase A (MMP-2) (Table 3), above 1000 nM; with gelatinase A (MMP-2) (Table I, enzyme 1 nM, pH 7.5), 614 ± 32 nM; in assay [2] (setting [5]) it was above 1000 nM. Further, in assay [2] (Table I, enzyme 1 nM, pH 7.5, read-out: Ki(app) MMP-3(ΔC)), the Ki was around 3300 nM.

Values taken from patent US20090318342A1, “Compounds” (IMPERIAL INNOVATIONS LIMITED, priority 2005, published 2009).
